Data reported in US20240132621A1.

Target: chitinase-3-like protein-1 (YKL-40) on human ovarian cancer cell CA5171 (human) (UniProt P36222)
Assay: flow cytometry on human ovarian cancer cell CA5171

Chain of UniProt P36222 (P36222 22-383): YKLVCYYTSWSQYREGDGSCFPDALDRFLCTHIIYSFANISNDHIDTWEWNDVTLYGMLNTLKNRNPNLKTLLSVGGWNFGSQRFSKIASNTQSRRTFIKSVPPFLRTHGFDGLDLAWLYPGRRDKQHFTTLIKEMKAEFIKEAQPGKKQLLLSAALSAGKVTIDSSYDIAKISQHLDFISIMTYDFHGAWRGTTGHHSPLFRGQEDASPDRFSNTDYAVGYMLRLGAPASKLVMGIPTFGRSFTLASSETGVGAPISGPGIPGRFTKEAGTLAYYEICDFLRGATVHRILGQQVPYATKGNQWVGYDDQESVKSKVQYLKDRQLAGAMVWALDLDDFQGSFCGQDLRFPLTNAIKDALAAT

binding ability (percent, flow cytometry): 28.7%
Substance: control group antibody (IgG)
